Laboratory results as given in US11819552B2, “Antibody-drug conjugates targeting uPARAP” (RIGSHOSPITALET, priority 2016, dated 2023).
“Also recorded” adds a separate entry of the source.

What was measured:
[1] = biological target: T1, soluble truncated uPARAP protein containing the first 3 N-terminal domains of human uPARAP (Homo sapiens, UniProt Q9UBG0); test: ELISA analysis of uPARAP-binding of mAbs; conditions: after reduction step of conjugation, or in ADC form
T1 construct: a soluble truncated uPARAP protein containing the first 3 N-terminal domains of human uPARAP
T1 sequence (Q9UBG0 31-365): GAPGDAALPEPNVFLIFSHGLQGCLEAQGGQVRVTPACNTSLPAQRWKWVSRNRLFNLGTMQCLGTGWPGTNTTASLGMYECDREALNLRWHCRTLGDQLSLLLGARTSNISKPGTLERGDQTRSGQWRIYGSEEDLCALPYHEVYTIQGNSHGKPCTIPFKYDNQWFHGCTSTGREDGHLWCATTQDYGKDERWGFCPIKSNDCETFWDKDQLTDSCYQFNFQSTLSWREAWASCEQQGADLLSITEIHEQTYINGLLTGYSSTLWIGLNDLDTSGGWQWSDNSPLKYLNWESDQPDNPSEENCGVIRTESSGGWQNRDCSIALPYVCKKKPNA
Procedure: Untreated mAbs (2h9 or aTNP), same mAbs subjected to the reduction procedure of conjugation (see above), or ADCs 2h9-vc-MMAE or aTNP-vc-MMAE, were then employed as a primary antibody, followed by a HRP-conjugated rabbit anti-mouse Ig secondary antibody. Finally an o-phenylenediamine dihydrochloride-containing substrate solution was added, and the color reaction was stopped by adding 1M H2SO4. Plates were read at 492 nm using a plate reader.

mouse uPARAP = biological target: T2, mouse uPARAP (Mus musculus, UniProt Q64449); test: Antibody reactivity with uPARAP; assay type: binding; conditions: listed as 2h9
T2 sequence (Q64449 31-1479): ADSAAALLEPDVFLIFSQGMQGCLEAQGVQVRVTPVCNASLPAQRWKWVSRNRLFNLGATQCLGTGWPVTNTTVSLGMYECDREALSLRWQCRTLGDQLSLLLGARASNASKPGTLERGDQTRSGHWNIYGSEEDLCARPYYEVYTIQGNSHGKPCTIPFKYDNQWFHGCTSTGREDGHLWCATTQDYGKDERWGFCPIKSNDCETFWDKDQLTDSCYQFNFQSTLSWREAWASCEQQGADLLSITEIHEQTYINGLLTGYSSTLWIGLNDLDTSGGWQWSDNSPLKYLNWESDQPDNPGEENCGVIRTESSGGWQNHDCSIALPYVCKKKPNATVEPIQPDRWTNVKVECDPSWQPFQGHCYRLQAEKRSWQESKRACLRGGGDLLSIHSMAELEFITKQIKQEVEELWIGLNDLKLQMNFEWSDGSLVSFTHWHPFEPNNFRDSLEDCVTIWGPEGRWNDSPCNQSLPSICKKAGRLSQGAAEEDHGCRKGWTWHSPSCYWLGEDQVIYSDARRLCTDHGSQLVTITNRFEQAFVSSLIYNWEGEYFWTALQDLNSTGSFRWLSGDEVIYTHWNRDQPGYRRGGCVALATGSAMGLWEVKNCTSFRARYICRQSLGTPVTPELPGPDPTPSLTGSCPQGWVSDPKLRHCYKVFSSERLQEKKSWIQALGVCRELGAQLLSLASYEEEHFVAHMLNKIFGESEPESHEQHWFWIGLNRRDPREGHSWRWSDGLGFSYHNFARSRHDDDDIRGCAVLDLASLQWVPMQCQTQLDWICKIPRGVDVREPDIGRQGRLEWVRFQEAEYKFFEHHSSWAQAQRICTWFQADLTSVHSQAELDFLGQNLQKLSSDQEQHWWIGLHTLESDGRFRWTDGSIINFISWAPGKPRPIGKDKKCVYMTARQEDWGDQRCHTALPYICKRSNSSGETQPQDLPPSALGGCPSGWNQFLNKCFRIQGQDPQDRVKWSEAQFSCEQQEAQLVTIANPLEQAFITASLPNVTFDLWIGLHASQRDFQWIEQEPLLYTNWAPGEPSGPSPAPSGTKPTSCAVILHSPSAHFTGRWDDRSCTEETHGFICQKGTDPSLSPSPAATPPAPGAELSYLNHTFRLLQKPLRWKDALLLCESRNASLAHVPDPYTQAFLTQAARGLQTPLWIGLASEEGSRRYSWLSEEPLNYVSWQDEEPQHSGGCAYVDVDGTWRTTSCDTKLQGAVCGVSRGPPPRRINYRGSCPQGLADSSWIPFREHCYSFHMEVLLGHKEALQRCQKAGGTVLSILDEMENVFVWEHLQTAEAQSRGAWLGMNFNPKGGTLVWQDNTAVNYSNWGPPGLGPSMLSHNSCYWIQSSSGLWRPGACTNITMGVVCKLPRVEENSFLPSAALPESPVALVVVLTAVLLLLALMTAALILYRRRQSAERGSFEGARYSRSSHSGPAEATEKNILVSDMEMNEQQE

Affinity towards uPARAP following conjugation procedure [1]: retained affinity
Affinity towards uPARAP following conjugation procedure ([1]; listed as 2h9): negligible loss of affinity
B1: mAb 2h9: mouse monoclonal IgG1k anti-uPARAP antibody clone 2.h.9: F12, produced by hybridoma cell culture (protein)
light: DIQMTQSPASQSASLGESVTITCLASQTIGTWLAWYQQKPGKSPQLLIYAATTLTDGVPSRFSGAGSGTKFSLKISSLQAEDFASYFCQEFFSTPFTFGSGTKLELKRADAAPTVSIFPPSSEQLTSGGASVVCFLNNFYPKDINVKWKIDGGERQNGVLNSWTDQDSKDSTYSMSSTLTLTKDEYERHNSYTCEATHKTSTSPIVKSFNRNEC
heavy: QVQLQQPGTELVRPGLSVKLSCKASGYTFTSYWMNWVKQRPGQGLEWIGMIHPSNDEKRINQKFKDKATLTVDKFSSTVYMQVSSPTSEDSAVYYCARGGGDYVGDYALDFWGQGTSVTVSSAKTTPPSVYPLAPGSAAQTNSMVTLGCLVKGYFPEPVTVTWNSGSLSSGVHTFPAVLQSDLYTLSSSVTVPSSTWPSETVTCNVAHPASSTKVDKKIVPRDCGCKPCICTVPEVSSVFIFPPKPKDVLTITLTPKVTCVVVDISKDDPEVQFSWFVDDVEVHTAQTQPREEQFNSTFRSVSELPIMHQDWLNGKEFKCRVNSAAFPAPIEKTISKTKGRPKAPQVYTIPPPKEQMAKDKVSLTCMITDFFPEDITVEWQWNGQPAENYKNTQPIMDTDGSYFIYSKLNVQKSNWEAGNTFTCSVLHEGLHNHHTEKSLSHSPGK
Reactivity with mouse uPARAP (mouse uPARAP): reactive against both human and murine uPARAP; also recorded: reacts with both human and mouse uPARAP
